# Reference: article PMC9745132, “Visualization of real-time receptor endocytosis in dopamine neurons enabled by NTSR1-Venus knock-in mice” (Frontiers in Cellular Neuroscience, 2022)
# Structures can show the parent of a compound that is named as a salt.
# Key:
# NTSR1-Venus = target: T1, NTSR1-Venus (Mus musculus, UniProt O88319); assay: Multiphoton imaging of NTSR1-Venus internalization in acute SN/VTA brain slices; format: cell-based; settings: 1 μM during slice recovery and imaging, 60 min
# T1 construct: monitoring endogenous NTSR1-Venus receptor endocytosis could differentiate NTSR1 agonists; endogenous in cells; host or cells: primary hippocampal neurons from homozygous NTSR1-Venus knock-in mice (C57BL/6N background)
# T1 sequence (O88319 whole entry): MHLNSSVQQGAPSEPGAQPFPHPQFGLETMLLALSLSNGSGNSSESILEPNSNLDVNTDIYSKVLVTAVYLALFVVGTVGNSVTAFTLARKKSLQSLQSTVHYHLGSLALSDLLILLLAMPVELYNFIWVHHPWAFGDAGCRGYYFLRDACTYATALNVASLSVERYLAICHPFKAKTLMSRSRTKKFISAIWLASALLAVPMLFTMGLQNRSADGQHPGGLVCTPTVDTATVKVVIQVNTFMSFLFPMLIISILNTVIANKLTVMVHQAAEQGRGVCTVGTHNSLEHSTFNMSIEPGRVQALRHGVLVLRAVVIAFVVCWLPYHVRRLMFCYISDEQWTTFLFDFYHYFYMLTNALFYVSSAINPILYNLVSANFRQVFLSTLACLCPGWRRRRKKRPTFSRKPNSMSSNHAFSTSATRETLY
# Method: Male and female Ntsr1^Venus/Venus mice aged 5 weeks were anesthetized, and 250 μm-thick coronal slices containing substantia nigra pars compacta and ventral tegmental area were prepared. Cutting solution contained (in mM): 87 NaCl, 25 NaHCO3, 25 glucose, 75 sucrose, 2.5 KCl, 1.25 NaH2PO4, 0.5 CaCl2, and 7 MgCl2; bubbled with 5% CO2/95%O2; 4°C. Following cutting, slices were incubated in the same solution for 30 min at 33°C. For control experiments, slices were subsequently incubated in the same solution at room temperature until imaging. For antagonist experiments, slices were subsequently incubated in cutting solution with 1 μM SR48962 until imaging. SR48962 was prepared as a 1 mM stock in water.
# Imaging solution referred to as aCSF contained (in mM): 125 NaCl, 2.5 KCl, 2 CaCl2, 1 MgCl2, 25 NaHCO3, 1.25 NaH2PO4, 25 glucose; bubbled with 5% CO2/95% O2; 31–34°C, ∼310 mOsm. For antagonist-only experiments, 1 μM SR48962 was added to the imaging solution. For antagonist plus agonist experiments, a baseline image was taken with no NTSR1 agonist or antagonist in the imaging solution, and subsequently, 10 μM PD149163 [prepared from a stock solution in water] was added to the imaging solution. As a precautionary measure, all components that were exposed to antagonist were rinsed first with 70% ethanol and then water. All components that were exposed to agonist were replaced between experiments.
# For two-photon laser scanning microscopy (2PLSM), a 2-photon source (Coherent Ultra II, Santa Clara, CA, USA) was tuned to 920 nm for imaging. […] Both epi and transfluorescence were detected with R9110 photomultiplier tubes (Hamamatsu, Shizuoka, Japan). Laser power measured at the focal plane under the objective was between 8 and 34 mW. […]
# To test whether NTSR1 receptors are indeed being bound by endogenous ligand in acute slice, we compared NTSR1 distribution in slices treated with the NTSR1 specific antagonist, SR48692 ([Gully et al., 1993]). […] NTSR1-Venus puncta were then quantified in the acquired image projections by counting vesicle-sized particles (Figure 5E). […]
# NTSR1-RlucII (mouse) [1] = target: NTSR1-RlucII (mouse) (UniProt O88319)
# Chain of NTSR1-RlucII (mouse) (O88319 whole entry): as above
# [2] = target: NTSR1-Venus (transfected construct) (mouse) (UniProt O88319)
# Chain of NTSR1-Venus (transfected construct) (mouse) (O88319 whole entry): as above
# [3] = target: mouse NTSR1 (untagged) (mouse) (UniProt O88319)
# Chain of mouse NTSR1 (untagged) (mouse) (O88319 whole entry): as above
# NTSR1-RlucII (mouse) [4] = target: NTSR1-RlucII (mouse) (UniProt O88319); remark: listed apart in the source
# [5] = target: NTSR1-Venus (knock-in receptor of Ntsr1 Venus/Venus mice) (mouse) (UniProt O88319)
# Chain of NTSR1-Venus (knock-in receptor of Ntsr1 Venus/Venus mice) (mouse) (O88319 whole entry): as above
# [6] = test system: hippocampal neurons from Ntsr1^WT/WT mice; assay: Intracellular calcium release (Fluo-4) in hippocampal neurons from Ntsr1^WT/WT mice; format: cell-based, mouse; settings: 1 μM, maximal calcium response control
# [7] = test system: hippocampal neurons from Ntsr1^Venus/Venus mice; assay: Intracellular calcium release (Fluo-4) in hippocampal neurons from Ntsr1^Venus/Venus mice; format: cell-based, mouse; settings: 1 μM, maximal calcium response control
# Method: To isolate hippocampal neurons, P0 pups were removed from the cage of NTSR1-Venus homozygous knock-in breeding pairs. Pups were decapitated, brains were removed dorsal side up into fresh ice-cold Hank’s balanced salt solution (HBSS; Gibco, Grand Island, NY, USA), meninges were removed, and hippocampi were dissected into Hibernate A (Gibco, Grand Island, NY, USA) on ice. Tissue dissociation was carried out with the Papain Dissociation System according to the manufacturer’s protocol (Worthington Biochemical Corporation, Lakewood, NJ, USA). Neurons were plated on Poly-D-Lysine (Sigma) coated surfaces at 100,000 cells per 12 mm coverslip (NeuVitro, Camas, WA, USA) in a 24-well plate for immunostaining or 50,000 cells per well of an 8 well chamber slide (Ibidi, Grafelfing, Germany) for calcium measurements. Plating media [Neurobasal A (Gibco, Grand Island, NY, USA), 1% FBS (Fisher Scientific), 2% B-27 (Gibco, Grand Island, NY, USA), 0.5 mM GlutaMAX (Gibco, Grand Island, NY, USA), and 1x Penicillin/Streptomycin (Invitrogen, Waltham, MA, USA)] was exchanged 1 h after plating to maintenance media (Neurobasal A, 2% B-27, 0.5 mM GlutaMAX, and 1x Penicillin/Streptomycin). Half of the volume of media was exchanged for fresh media every 3–4 days. On day in vitro (DIV) 3 Cytosine arabinoside hydrochloride (Sigma) was added to media with a final concentration of 0.1 μM to decrease glial cell proliferation.
# Hippocampal neurons were grown until DIV 7. Fluo-4 NW Calcium Assay kit (Thermo Fisher) was used according to the manufacturer’s protocol. Briefly, drugs were prepared at 4 μM stock solutions in the assay buffer provided without probenecid. […] Fluorescence was imaged with a 10x objective on an (Olympus, Shinjuku City, Tokyo, Japan) IX73 microscope (Fluo-4 em. 506 nm).
# Live imaging settings of Fluo-4 were as follows, 79 ms exposure, 2 s intervals for 90 cycles (180 s). […] First regions of interest (ROI) were automatically determined using the analyze particles plug in. […] Relative fluorescence is defined as F/F0 where F corresponds to the cell fluorescence and F0 to the basal fluorescence.
compound,measurement,setting,value
COc1cccc(OC)c1-c1cc(C(=O)NC2(C(=O)O)C3CC4CC(C3)CC2C4)nn1-c1ccnc2cc(Cl)ccc12 (stereo not drawn) [SR48692],NTSR1-Venus puncta across imaging time,NTSR1-Venus,trend of decreasing puncta across imaging time
Neurotensin (from UniProt P30990 151-163) (peptide),"NTSR1-RlucII internalization in HEK293 cells (decrease in ebBRET between NTSR1-RlucII and rGFP-CAAX), concentration-response; potency LogEC50",NTSR1-RlucII (mouse) [1],-8.07 LogEC50 (M)
same,"Gq activation in HEK293 cells (ebBRET between p63RhoGEF-RlucII and rGFP-CAAX, EMTA), concentration-response; potency LogEC50",[2],-8.78 LogEC50 (M)
same,"Gq activation in HEK293 cells (ebBRET between p63RhoGEF-RlucII and rGFP-CAAX, EMTA), concentration-response; potency LogEC50",[3],-8.97 LogEC50 (M)
same,"NTSR1-RlucII internalization in HEK293 cells (decrease in ebBRET between NTSR1-RlucII and rGFP-CAAX), concentration-response; potency as told in the text",NTSR1-RlucII (mouse) [4],5.89 nM
same,"NTSR1-Venus endocytosis in primary hippocampal neurons (ratio of Venus and EEA1 positive to total EEA1 positive endosomes), dose-response after 5 min of agonist; EC50",[5],4.03 nM
same,"NTSR1-Venus redistribution to EEA1 endosomes in primary hippocampal neurons, 1 uM neurotensin, time course 0-60 min; % EEA1 vesicles with Venus (value at 5 min)",[5],98.5%
"C[C@H](CCC(=O)O)C[C@H](C)C[C@H](C)C(=O)/C=C(\O)[C@H](C)C[C@H](C)C/C=C/[C@@H](C)[C@@H](O)[C@@H](C)[C@@H](O)C[C@@H]1CC[C@@](C)([C@H]2CC[C@@](C)([C@@H](C)O)O2)O1 [Ionomycin, Ionomycin calcium salt from Streptomyces conglobatus]",calcium increase,[6],3 fold
same,calcium increase,[7],3 fold
